Measured values from publication PMC6237754, “A monovalent ion in the DNA binding interface of the eukaryotic junction-resolving enzyme GEN1”.

Target: T1, CtGEN1 (Chaetomium thermophilum, UniProt G0RYN2 1-487)
T1 sequence: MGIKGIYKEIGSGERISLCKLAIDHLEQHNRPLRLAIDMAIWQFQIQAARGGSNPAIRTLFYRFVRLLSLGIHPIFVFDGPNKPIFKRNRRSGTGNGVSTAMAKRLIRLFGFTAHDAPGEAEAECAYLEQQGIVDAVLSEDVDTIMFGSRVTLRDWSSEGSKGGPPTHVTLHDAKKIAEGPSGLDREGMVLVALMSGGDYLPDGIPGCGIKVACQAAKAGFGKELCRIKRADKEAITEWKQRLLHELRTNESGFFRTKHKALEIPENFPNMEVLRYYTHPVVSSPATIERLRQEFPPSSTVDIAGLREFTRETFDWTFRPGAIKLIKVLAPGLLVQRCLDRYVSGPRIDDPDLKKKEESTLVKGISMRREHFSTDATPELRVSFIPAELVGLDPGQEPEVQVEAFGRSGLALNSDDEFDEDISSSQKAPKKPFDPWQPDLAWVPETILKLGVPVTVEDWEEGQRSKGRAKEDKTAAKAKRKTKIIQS
Assay: EMSA; 100 mM KCl; EMSA: equal volumes of DNA in 10 mM Tris pH 7.5, 0.1% BSA, 100 mM KCl or NaCl and CtGEN1 in 10 mM Tris pH 7.5, 100 mM NDSB-195, 0.1% BSA, 1 mM EDTA; 20 min, 20
Conditions: protein: recombinant; tags: C-terminal His6; chain copies: 2; label: 5'-32P; four-way junction; strands b/h/r/x, 50 nt each

B1: four-way junction 3 (4H) (structured_DNA)
DNA 1: CCTCGAGGGATCCGTCCTAGCAAGGGGCTGCTACCGGAAGCTTACAGATG
DNA 2: CATCTGTAAGCTTCCGGTAGCAGCCTGAGCGGTGGTTGAATTCACAGATG
DNA 3: CATCTGTGAATTCAACCACCGCTCAACTCAACTGCAGTCTAGAACACATG
DNA 4: CATGTGTTCTAGACTGCAGTTGAGTCCTTGCTAGGACGGATCCCTCGAGG
binding signal: ~2 fold higher affinity than in Na+
